Assay results published in paper PMC6927325.
pKd: −log10 of the molar value.

How the values were obtained:
[1] = molecular target: fluorescein-labeled ALK peptide F1577…1587; assay: fluorescence polarisation; fluorescein-labeled peptides and GST-PTBi in solution
[2] = molecular target: fluorescein-labeled ALK peptide G1473…1483; assay: as above

pKd [1]: 6.30
pKd [2]: 6.15
Substance: GST-fused NUMB PTB domain with the exon 3 insert (11 aa) (domain or fragment)
